# Experimental data from the nanobody polyreactivity screen of Harvey et al. (2022).
# Assay: yeast display, Sf9 membrane polyspecificity reagent, FACS + sequencing; frameworks hold sequencing errors
# How it was run: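 In a synthetic yeast display library (Saccharomyces cerevisiae BJ5465), nanobody expression was induced with galactose for 36–48 hours. FACS gates were set low and high (top ~1%) using anti-HA fluorescence for expression and streptavidin fluorescence for binding of the Sf9 membrane reagent. Each polyreactivity label is drawn from the gate of origin.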
row,Sequence,polyreactivity (PSR sort gate)
1,QVQLVESGGGLVQAGGSLRLICAASGSIFPRYVMGWSRQAPGKERELVAAITRRGGSTYYADSVKGRFTISRDNAKHTVYLQMNSLKPADTAVYYCNAKYRLEMDWGQGTQVTVSS,high polyreactivity
2,QVQLVESGGGLVQAGGSLRLICAASGSIFRLNTMGWYRQAPGKERELVAAIFTSGGSTYADSVKGRFTISRDNAKNTVYLQMNSLKPEDTAVYYCAGMDYWGQGTQVTVSS,low polyreactivity
3,QVQLVESGGGLVQAGGSLRLICAASGSIFRNNARGWYRQAAGKERELVAVISRRSGNTYYADSVKGRFTISRDNAKNTVYLQMNSLKPEDTAVYYCAADYSKSSIRGDYWGQGTQVTVSS,low polyreactivity
4,QVQLVESGGGLVQAGGSLRLICAASGSIFRPNAMGWYRQAPGKEREFVASISGRVGSTYYADSVKGRFTISRDNAKNTVYLQMNSLKPEDTAVYYCAADFPTDKLSNFPITEYGYWGQGTQVTVSS,high polyreactivity
5,QVQLVESGGGLVQAGGSLRLICAASGSIFSENTMGWYRQAPGKERELVAAISWSGGSTKYADSVKGRFTISRDNAQITVYLQMNCLKPEDTSVYNCGTDIHDDTGAYDYWGQCTQVTVSS,low polyreactivity
6,QVQLVESGGGLVQAGGSLRLICAASGSIFSTYTMGWYRQAPGKERELVAAITRSGGSTYYADSVKGRFTISRDNAKNTVYLQMNSLKPEDTAVYYCAAKGKRLRSYYQRYYYWGQGTQVTVSS,high polyreactivity
7,QVQLVESGGGLVQAGGSLRLICAASGSIFTPYVMGWYRQAPGKEREFVAAITQRGGRTYYADSVKGRFTISRDNAKNTVYLQMNSLKPEDTAVYYCAKTSVSRTYHRSAYDYWGQGTQVTVSS,high polyreactivity
8,QVQLVESGGGLVQAGGSLRLICAASGSIFTYYTMGWYRQAPGKERELVAAIRWSAGRTYYADSVKGRFTISRDNAKNSVYLQMNSLKPEDTSVYYCAAAERLRHGLKFDYWGQGTQVTVSS,high polyreactivity
9,QVQLVESGGGLVQAGGSLRLICAASGSIFVGYAMGWCRQAPGKERELVAAIRSGGSTKYADSVKGRFTISRDNAKNTVYLQMNSLKPEDTAVYYCNVEVHPYYWVDNFHRFPVLHNYWGQGTQVTVSS,low polyreactivity
10,QVQLVESGGGLVQAGGSLRLICAASGSIRYYAMGWYTQAPGKEREFVAAISRRGSSTNYADSVKGRFTISRDNAKNTVYLQMNSLNPEDTAVYNCAAAARAGLKRYYYWGQGTQVTVSS,high polyreactivity
11,QVQLVESGGGLVQAGGSLRLICAASGSISYINAMGWYRQATGKERELDARIRSGDPTNYADSVKGRFTISRDNAKNTVYLQMNSLKPEDTAVYYCARRVTGTLYYTGYDYWGQGTQVTVSS,high polyreactivity
12,QVQLVESGGGLVQAGGSLRLICAASGSTFAYNYMGWYRQAPGKERELVPDIRSGGNTNYADSVKGRFTISRDNAKNTVYLQMNSLKPEDTAVYYCATDGYRIDVYHPDYRYDYWGQGTQVTVSS,low polyreactivity
13,QVQLVESGGGLVQAGGSLRLICAASGSTFDVNAMGWYRQAPGKERELVAAISWNSGSTYYADSVKGRFTISRDNAKNTVYLQMNSLKPEDTAVYYCAATYGTGRRSKYGYWGQGTQVTVSS,high polyreactivity
14,QVQLVESGGGLVQAGGSLRLICAASGSTFFANAMGWYRPAPGKERELVAVITYSGGSTYYADSVKGRFTISRYNAKNTVYLQMNSLKPEDTAVDYCAAKSYFRPYSYSYSYWGQGTQVTVSS,high polyreactivity
15,QVQLVESGGGLVQAGGSLRLICAASGSTFGFNAMGWYRQAPGKERELVAAITFSGGTTYYADSVKGRFTISRDNAKNTVYVQMNSLKPDDTAVYYCNAEWWYHYTGPFAPWGEDYWGQGTQVTVSS,low polyreactivity
16,QVQLVESGGGLVQAGGSLRLICAASGSTFHAYAMGWYRQAPGKERDLVAAITWSGDSTYADSVKGRFTISRDKAKNTFFLQMNSLKPEETAVYDCACRGFLGHWPRPSYDYWGQGTQVTVSS,low polyreactivity
17,QVQLVESGGGLVQAGGSLRLICAASGSTFKRYAMGWYRQAPGKERELVAAISTRGSTYYADSVKGRFTISRDNAKNTVYLQMNSLKPEDTAVYYCNARQALVWKWSWYSPGYDYWGQGTQVTVSS,low polyreactivity
18,QVQLVESGGGLVQAGGSLRLICAASGSTFTQNAMGWYRQAPGKERELVAAISSSGTRTYYADSVKGRFTISRDNAKNTVYLQMNSLKPEDTAVYYCAATVYPSVYGENHYGYWGQGTKVTVSS,high polyreactivity
19,QVQLVESGGGLVQAGGSLRLICAASGSTFWPYARGWYRQAPGNERELVAAITWSGGRTYYADSVKGRFTISRDNAKNTVYLQMNSLKPEDTAVYYCAADSYVLGRWYGYWGQGTQVTVSS,low polyreactivity
20,QVQLVESGGGLVQAGGSLRLICAASGSTLKYYAMGWSRPAPGKERELVARITRSSGSTYYADSVKGRFTISRDNAKNTVYLQMNSMKPEDTAVYYCNKVYKSYYWGGYDWGQGTQVTVSS,high polyreactivity
21,QVQLVESGGGLVQAGGSLRLICAASGSTLYRNAMGWYRQARGKERELVAAISSSGGTTFYADSVKGRFTISRDNAKNTVYLQMNSLKPEDTAVYYCNRTARKLLTVHSSVVGLDYWGQGSQVTVSS,low polyreactivity
22,QVQLVESGGGLVQAGGSLRLICAASGSTSYVYAMGWYRQAPGKERELVAAISGSGGRTYYADSVKGRFTISRDNAKNTVYLQMNSLKPEDTAVYYCNALPRPSYPFEYWGQGTQVTVSS,high polyreactivity

row,Sequence,polyreactivity (PSR sort gate)
1,QVQLVESGGGLVQAGGSLRLICAASGSTTFYAKGWYRPAPGKEWELVATISSSAGSTYYADSVKGRFTISRDNAKNNVYLEMNSLIPEDTAVFYCDAKYSQLRQYYRLDYWGQGTQVTVSS,low polyreactivity
2,QVQLVESGGGLVQAGGSLRLICAASGSTYSVYAMVWYRQAPGKERELVATITWNGGRTYYADSVKGRFTISRDNAKNTVYLQMNSLKPEDTAVYYCAADGWTSIGGPDYQHDYWGQGTQVTVSS,high polyreactivity
3,QVQLVESGGGLVQAGGSLRLICAASGSTYYDYAMGWYRQAPGKERELVAGISRSGGSTYYADSVKGRFTISRDNAKNSVYLQMNSLKPEDTAVYYCAARNYRYLYRIEYWGQGTQVTVSS,high polyreactivity
4,QVQLVESGGGLVQAGGSLRLICAASGTFTSNAMGWYRQAPGKERELVAVITSTDSTNYADSVKGRFTISRDNAKNTVYLPLNSLKPEDTAVYYCAGSKYTVVQQYWDVLFDYWGQGTQVTVSS,low polyreactivity
5,QVQLVESGGGLVQAGGSLRLICAASGYIFKHNAMGWYRQAPGKERELVAAISWSGVSTYYADSVTGRFTISRDNAKNTVYLQMNSLKPEDTAVYYCNAPAIAPIYDYWGQGTQVTVSS,low polyreactivity
6,QVQLVESGGGLVQAGGSLRLICAASGYILWKAMGWYRQAPGKERELVAAIRFRVGSTSYADSVKGRFTISRDNAKNTVYLQMNSLKPVYTAVYYCTARWWVIRPYQRHDYWGQGTQVTVSS,low polyreactivity
7,QVQLVESGGGLVQAGGSLRLICAASGYTFEYNAMGWSRQAPGKEREFVATITASGDSTYYADSVKGRFTISRDNAKNTVYLQMNSLKPEDTAVYYCATEKRDVYFTAKYDYWGQGTQVTVSS,low polyreactivity
8,QVQLVESGGGLVQAGGSLRLICAASGYTFFFYAMGWYRQAPGKEREFVAAITWRGDSTYYADSVKGRYTISRDNAKNTVYLQMNSLKPEDTAVYYCAADPGFTWSRRMDYWGHGTQVTVSS,low polyreactivity
9,QVQLVESGGGLVQAGGSLRLICAASGYTFPDYAMGWYRPAPGTERELVAAIRSGGGTNYADSVKGRFTISRDNAKNSVYLQMNSMKPEDTAVFYCAKEWAGGLYDYWGQGTQVTVSS,low polyreactivity
10,QVQLVESGGGLVQAGGSLRLICAASGYTFPYAMGWYRQAPGKERELVAAISRSGASTYYADSVKGRFTISRDNAKNTVYLQMNSLKPEDTAVYYCATRRVYSTRVKFYYWGQGTQVTVSS,high polyreactivity
11,QVQLVESGGGLVQAGGSLRLICAASGYTFYYAMGWYRQAPGKERELVAAISAGGGRTYYADSVKGRFTISRDNAKITVYLQMNSLKPEDTAVYYCNRVYRLTAYGYDYWGQGTQVTVSS,high polyreactivity
12,QVQLVESGGGLVQAGGSLRLICAATGFTFHNNVMGWYRQAPGKERELVATISKSGGSTYYADSVKGRFTISRDNAKNTVYLQMNRLKPEDTAVYYCARRYRDYGRYGYWGQGTQVTVSS,high polyreactivity
13,QVQLVESGGGLVQAGGSLRLICAGSGSTFPTYAMGWYRQAPGKERELVAAITSGSGTNTYYADSVKGRFTISRDNAKNTVYLQMNSLKPEDTAVYYCAASGGKNGMNYWGQGTQVTVSS,high polyreactivity
14,QVQLVESGGGLVQAGGSLRLICAPSGITFYPYSMGWSRQAPGKERELVAAISGGTNTHYADSVKGRFTISRDNAKNTDYLQMNSLKPVDTAVYYCAAGIDFRRTTSYSFWFDYWGQGTQVTVSS,high polyreactivity
15,QVQLVESGGGLVQAGGSLRLICASSGRIFSPYVMGWYRQAPGKERELVARISWTGSSTYYADSVKGRFTISRDNAKNTVYLQMNSLKPEDTAVYYCAKRLTRFYTRLEYWGLGTQVTVSS,low polyreactivity
16,QVQLVESGGGLVQAGGSLRLICDASGRTFPPYAMGWYRQAPGKERELVAAISRRAGTTYYADSVKGRFTISRDNAKNTDYLQMNSLKPEDTAVYYCAADTPVWSGYWYDYWGQGTQVTVSS,low polyreactivity
17,QVQLVESGGGLVQAGGSLRLICPASGSTFQYYAMGWYRQAPGKEREFVAAIRSSGGTTYYADSVKGRFTISRDNAKKTVYLQMNSLKPEDTAVYYCATVVNYPSARYCYWGQGTKVTVSS,high polyreactivity
18,QVQLVESGGGLVQAGGSLRLICSASGSTFNLYAMGWYRQAPWTERELVAAISYRGGTTYYADSVKGRFTISRDNAKHTVYLQMNSLKREDTAVYYCSAGWRPRSLRDASKYDFWGQGTQVTVSS,low polyreactivity
19,QVQLVESGGGLVQAGGSLRLNCAASGITFGYNAMGWYRQPPGKERELVAAISSRGGSTYYADSVKGRFTISRDNAKNTVYLQMNSMKPEDTAVYYCAKDGGPGRYAWYWPVRMGYWGQGTQVTVSS,high polyreactivity
20,QVQLVESGGGLVQAGGSLRLNCAASGITIRRYAMGCYRQAPGNERELVAAITTGGGGTYYADSVKGRFTISRDNAMNTVYLQMNSLKPEDTAVYYCAATYWRTYPSYYWGQGTQVTVSS,high polyreactivity
21,QVQLVESGGGLVQAGGSLRLNCAASGNIFISYAMGWYRQAPGKERELVAAISRSGGSTYYADSVKGRFTISRDYAKNTVYLQMNSLKPEDTAVYYCAAYIGPGRYGSWGQGTQVTVSS,high polyreactivity
